Molecular target: T1, FcγRIa extracellular domain with C-terminal His tag (human, UniProt P12314 16-292)
T1 construct: extracellular domain; also called FcgRI; CD64; not shown: His tag at the C terminus
Assay: SPR Biacore, relative FcγRIa binding vs GpH7-A5/GpH7-B3/GpL16-k0

T1 sequence (P12314 16-292): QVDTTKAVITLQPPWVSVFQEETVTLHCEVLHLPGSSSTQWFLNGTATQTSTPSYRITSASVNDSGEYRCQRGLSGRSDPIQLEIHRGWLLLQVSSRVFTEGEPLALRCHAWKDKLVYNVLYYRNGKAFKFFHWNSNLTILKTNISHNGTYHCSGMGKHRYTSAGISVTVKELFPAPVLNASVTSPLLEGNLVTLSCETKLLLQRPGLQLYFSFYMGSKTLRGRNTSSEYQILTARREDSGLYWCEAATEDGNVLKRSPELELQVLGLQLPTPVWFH

Row | He/Con_1a | Binder
1 | 103 % of HeCon Ab (=100) | GpH7-A5/GpH7-B3 variant S324_02A/GpL16-k0 (antibody, human IgG1, kappa, mutation in one H chain only; also called He Ab S324_02A; S324A) heavy 1: not shown heavy 2: not shown light: DIVMTQSPLSLPVTPGEPASISCQASESLVHSNRNTYLHWYLQKPGQSPQLLIYKVSNRFSGVPDRFSGSGSGTDFTLKISRVEAEDVGVYYCSQNTHVPPTFGQGTKVEIERTVAAPSVFIFPPSDEQLKSGTASVVCLLNNFYPREAKVQWKVDNALQSGNSQESVTEQDSKDSTYSLSSTLTLSKADYEKHKVYACEVTHQGLSSPVTKSFNRGEC
2 | 106 % of HeCon Ab (=100) | GpH7-A5/GpH7-B3 variant S337_02A/GpL16-k0 (antibody, human IgG1, kappa, mutation in one H chain only; also called He Ab S337_02A; S337A) heavy 1: not shown heavy 2: not shown light: DIVMTQSPLSLPVTPGEPASISCQASESLVHSNRNTYLHWYLQKPGQSPQLLIYKVSNRFSGVPDRFSGSGSGTDFTLKISRVEAEDVGVYYCSQNTHVPPTFGQGTKVEIERTVAAPSVFIFPPSDEQLKSGTASVVCLLNNFYPREAKVQWKVDNALQSGNSQESVTEQDSKDSTYSLSSTLTLSKADYEKHKVYACEVTHQGLSSPVTKSFNRGEC
3 | 108 % of HeCon Ab (=100) | GpH7-A5/GpH7-B3 variant S298_18N/GpL16-k0 (antibody, human IgG1, kappa, mutation in one H chain only; also called He Ab S298_18N; S298N) heavy 1: not shown heavy 2: not shown light: DIVMTQSPLSLPVTPGEPASISCQASESLVHSNRNTYLHWYLQKPGQSPQLLIYKVSNRFSGVPDRFSGSGSGTDFTLKISRVEAEDVGVYYCSQNTHVPPTFGQGTKVEIERTVAAPSVFIFPPSDEQLKSGTASVVCLLNNFYPREAKVQWKVDNALQSGNSQESVTEQDSKDSTYSLSSTLTLSKADYEKHKVYACEVTHQGLSSPVTKSFNRGEC
4 | 109 % of HeCon Ab (=100) | GpH7-A5/GpH7-B3 variant S298_16H/GpL16-k0 (antibody, human IgG1, kappa, mutation in one H chain only; also called He Ab S298_16H; S298H) heavy 1: not shown heavy 2: not shown light: DIVMTQSPLSLPVTPGEPASISCQASESLVHSNRNTYLHWYLQKPGQSPQLLIYKVSNRFSGVPDRFSGSGSGTDFTLKISRVEAEDVGVYYCSQNTHVPPTFGQGTKVEIERTVAAPSVFIFPPSDEQLKSGTASVVCLLNNFYPREAKVQWKVDNALQSGNSQESVTEQDSKDSTYSLSSTLTLSKADYEKHKVYACEVTHQGLSSPVTKSFNRGEC
5 | 105 % of HeCon Ab (=100) | GpH7-A5/GpH7-B3 variant S337_07I/GpL16-k0 (antibody, human IgG1, kappa, mutation in one H chain only; also called He Ab S337_07I; S337I) heavy 1: not shown heavy 2: not shown light: DIVMTQSPLSLPVTPGEPASISCQASESLVHSNRNTYLHWYLQKPGQSPQLLIYKVSNRFSGVPDRFSGSGSGTDFTLKISRVEAEDVGVYYCSQNTHVPPTFGQGTKVEIERTVAAPSVFIFPPSDEQLKSGTASVVCLLNNFYPREAKVQWKVDNALQSGNSQESVTEQDSKDSTYSLSSTLTLSKADYEKHKVYACEVTHQGLSSPVTKSFNRGEC
6 | 102 % of HeCon Ab (=100) | GpH7-A5/GpH7-B3 variant S324_11K/GpL16-k0 (antibody, human IgG1, kappa, mutation in one H chain only; also called He Ab S324_11K; S324K) heavy 1: not shown heavy 2: not shown light: DIVMTQSPLSLPVTPGEPASISCQASESLVHSNRNTYLHWYLQKPGQSPQLLIYKVSNRFSGVPDRFSGSGSGTDFTLKISRVEAEDVGVYYCSQNTHVPPTFGQGTKVEIERTVAAPSVFIFPPSDEQLKSGTASVVCLLNNFYPREAKVQWKVDNALQSGNSQESVTEQDSKDSTYSLSSTLTLSKADYEKHKVYACEVTHQGLSSPVTKSFNRGEC
7 | 104 % of HeCon Ab (=100) | GpH7-A5/GpH7-B3 variant S298_20W/GpL16-k0 (antibody, human IgG1, kappa, mutation in one H chain only; also called He Ab S298_20W; S298W) heavy 1: not shown heavy 2: not shown light: DIVMTQSPLSLPVTPGEPASISCQASESLVHSNRNTYLHWYLQKPGQSPQLLIYKVSNRFSGVPDRFSGSGSGTDFTLKISRVEAEDVGVYYCSQNTHVPPTFGQGTKVEIERTVAAPSVFIFPPSDEQLKSGTASVVCLLNNFYPREAKVQWKVDNALQSGNSQESVTEQDSKDSTYSLSSTLTLSKADYEKHKVYACEVTHQGLSSPVTKSFNRGEC
8 | 112 % of HeCon Ab (=100) | GpH7-A5/GpH7-B3 variant S324_19Q/GpL16-k0 (antibody, human IgG1, kappa, mutation in one H chain only; also called He Ab S324_19Q; S324Q) heavy 1: not shown heavy 2: not shown light: DIVMTQSPLSLPVTPGEPASISCQASESLVHSNRNTYLHWYLQKPGQSPQLLIYKVSNRFSGVPDRFSGSGSGTDFTLKISRVEAEDVGVYYCSQNTHVPPTFGQGTKVEIERTVAAPSVFIFPPSDEQLKSGTASVVCLLNNFYPREAKVQWKVDNALQSGNSQESVTEQDSKDSTYSLSSTLTLSKADYEKHKVYACEVTHQGLSSPVTKSFNRGEC
9 | 113 % of HeCon Ab (=100) | GpH7-A5/GpH7-B3 variant S324_16H/GpL16-k0 (antibody, human IgG1, kappa, mutation in one H chain only; also called He Ab S324_16H; S324H) heavy 1: not shown heavy 2: not shown light: DIVMTQSPLSLPVTPGEPASISCQASESLVHSNRNTYLHWYLQKPGQSPQLLIYKVSNRFSGVPDRFSGSGSGTDFTLKISRVEAEDVGVYYCSQNTHVPPTFGQGTKVEIERTVAAPSVFIFPPSDEQLKSGTASVVCLLNNFYPREAKVQWKVDNALQSGNSQESVTEQDSKDSTYSLSSTLTLSKADYEKHKVYACEVTHQGLSSPVTKSFNRGEC
10 | 114 % of HeCon Ab (=100) | GpH7-A5/GpH7-B3 variant S324_15Y/GpL16-k0 (antibody, human IgG1, kappa, mutation in one H chain only; also called He Ab S324_15Y; S324Y) heavy 1: not shown heavy 2: not shown light: DIVMTQSPLSLPVTPGEPASISCQASESLVHSNRNTYLHWYLQKPGQSPQLLIYKVSNRFSGVPDRFSGSGSGTDFTLKISRVEAEDVGVYYCSQNTHVPPTFGQGTKVEIERTVAAPSVFIFPPSDEQLKSGTASVVCLLNNFYPREAKVQWKVDNALQSGNSQESVTEQDSKDSTYSLSSTLTLSKADYEKHKVYACEVTHQGLSSPVTKSFNRGEC
11 | 107 % of HeCon Ab (=100) | GpH7-A5/GpH7-B3 variant S337_06M/GpL16-k0 (antibody, human IgG1, kappa, mutation in one H chain only; also called He Ab S337_06M; S337M) heavy 1: not shown heavy 2: not shown light: DIVMTQSPLSLPVTPGEPASISCQASESLVHSNRNTYLHWYLQKPGQSPQLLIYKVSNRFSGVPDRFSGSGSGTDFTLKISRVEAEDVGVYYCSQNTHVPPTFGQGTKVEIERTVAAPSVFIFPPSDEQLKSGTASVVCLLNNFYPREAKVQWKVDNALQSGNSQESVTEQDSKDSTYSLSSTLTLSKADYEKHKVYACEVTHQGLSSPVTKSFNRGEC

Source: patent US20180155451A1 (published 2018)
